Measured values from US20230414779A1, “ANTIGEN-BINDING FRAGMENTS AND USES THEREOF” (NewSouth Innovations Pty Limited, priority 2020, published 2023).
Entries after “also recorded” stand apart in the source; their conditions may differ. Where two headings read alike, the source gives them in different places. No end group written: not given here.

T1: FcγRIIA (Homo sapiens, UniProt P12318)
T1 sequence (P12318 34-317): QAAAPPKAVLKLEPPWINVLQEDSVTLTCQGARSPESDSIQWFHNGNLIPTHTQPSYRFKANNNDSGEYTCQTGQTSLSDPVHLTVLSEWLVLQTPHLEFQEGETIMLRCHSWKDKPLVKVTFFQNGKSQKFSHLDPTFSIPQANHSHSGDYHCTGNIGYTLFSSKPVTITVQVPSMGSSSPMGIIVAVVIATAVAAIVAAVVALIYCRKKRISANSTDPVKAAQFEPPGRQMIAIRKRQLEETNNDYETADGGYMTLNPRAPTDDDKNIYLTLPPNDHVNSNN

T2: human Fc gamma receptor IIA (FcγRIIA) (human, UniProt P12318 34-317)
T2 construct: whole, on cells; also called FcgRIIA; CD32a
T2 sequence (looked up): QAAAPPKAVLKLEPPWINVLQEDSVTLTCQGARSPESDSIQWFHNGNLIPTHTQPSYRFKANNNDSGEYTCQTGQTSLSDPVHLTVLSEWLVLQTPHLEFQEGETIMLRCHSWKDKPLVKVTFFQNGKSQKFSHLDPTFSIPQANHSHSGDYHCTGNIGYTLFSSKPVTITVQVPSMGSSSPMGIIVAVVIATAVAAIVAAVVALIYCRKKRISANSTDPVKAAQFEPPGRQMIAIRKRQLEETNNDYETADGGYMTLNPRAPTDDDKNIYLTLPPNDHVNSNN

B1: Humanized scFv (parental scFv) derived from the IV.3 monoclonal antibody (scFv)
scFv: EVQLVESGPELKKPGETVKISCKASGYTFTNYGMNWVKQAPGKGLKWMGWLNTYTGESIYPDDFKGRFAFSLETSASTAYLQINNLKSEDTATYFCARGDYGYDDPLDYWGQGTSVTVSSGGGGSGGGGSGGGGSDIVMTQAPPSVPVTPGESVSISCRSSKSLLHTNGNTYLHWFLQKPGQSPRLLIYRMSVLASGVPDRFSGSGSGTDFTLKISRVEAEDVGVYYCMQHLEYPLTFGAGTKLEIKRAHHHHHH
modifications: AF488 (fluorescent) label in the flow cytometry binding assays; site not stated
notes: Arranged VH-linker-VL; also called HRU4
B2: HRU5 (scFv)
scFv: EVQLVESGPELKKPGETVKISCKASGYTFTNYGMNWVKQAPGKGLKWMGWLNTYTGESIYPDDFKGRFAFSLETSASTAYLQINNLKSEDTATYFCARGDYGYDDPLDYWGQGTSVTVSSGGGGWAWVWLTETAVGGGGSDIVMTQAPPSVPVTPGESVSISCRSSKSLLHTNGNTYLHWFLQKPGQSPRLLIYRMSVLASGVPDRFSGSGSGTDFTLKISRVEAEDVGVYYCMQHLEYPLTFGAGTKLEIKRAHHHHHH
modifications: AF488 (fluorescent) label in the flow cytometry binding assays; site not stated
notes: also called HRU5 scFv; Peptide in the linker
B3: parental scFv: Humanized scFv derived from anti-FcγRIIA IV.3 monoclonal antibody, VH and VL joined by flexible GGGGS linker (protein)
scFv: EVQLVESGPELKKPGETVKISCKASGYTFTNYGMNWVKQAPGKGLKWMGWLNTYTGESIYPDDFKGRFAFSLETSASTAYLQINNLKSEDTATYFCARGDYGYDDPLDYWGQGTSVTVSSGGGGSGGGGSGGGGSDIVMTQAPPSVPVTPGESVSISCRSSKSLLHTNGNTYLHWFLQKPGQSPRLLIYRMSVLASGVPDRFSGSGSGTDFTLKISRVEAEDVGVYYCMQHLEYPLTFGAGTKLEIKRAHHHHHH
B4: HRU5: Humanized variable heavy and variable light chains derived from the IV.3 MoAb linked with a GGGGWAWVWLTETAVGGGGS linker (protein)
scFv: EVQLVESGPELKKPGETVKISCKASGYTFTNYGMNWVKQAPGKGLKWMGWLNTYTGESIYPDDFKGRFAFSLETSASTAYLQINNLKSEDTATYFCARGDYGYDDPLDYWGQGTSVTVSSGGGGWAWVWLTETAVGGGGSDIVMTQAPPSVPVTPGESVSISCRSSKSLLHTNGNTYLHWFLQKPGQSPRLLIYRMSVLASGVPDRFSGSGSGTDFTLKISRVEAEDVGVYYCMQHLEYPLTFGAGTKLEIKRAHHHHHH
B5: HRU7: HRU5 linked to bivalirudin (an anticoagulant peptide) by a Ser2Gly12 linker (protein)
scFv: EVQLVESGPELKKPGETVKISCKASGYTFTNYGMNWVKQAPGKGLKWMGWLNTYTGESIYPDDFKGRFAFSLETSASTAYLQINNLKSEDTATYFCARGDYGYDDPLDYWGQGTSVTVSSGGGGWAWVWLTETAVGGGGSDIVMTQAPPSVPVTPGESVSISCRSSKSLLHTNGNTYLHWFLQKPGQSPRLLIYRMSVLASGVPDRFSGSGSGTDFTLKISRVEAEDVGVYYCMQHLEYPLTFGAGTKLEIKRAGGGGSGGGGSGGGGFPRPGGGGNGDFEEIPEEYLHHHHHH

Assays:
FcγRIIA = biological target: T1, FcγRIIA; assay: Binding of the linker peptide alone; settings: source not stated
human platelets [1] = assay type: cell-based; settings: for Inhibition of platelet aggregation of HIT-antibody: concentration giving inhibition; for inhibition of HIT serum induced aggregation: 40 nM, human platelets, HIT serum and heparin; for EC50: HRU5 relative to the parental scFv, read-out: activity (effective concentration)
Description: Platelet aggregation assays were performed by mixing samples at 1200 rpm, 37° C. for up to 25 min in an aggregometer (Chrono-log Aggro/Link™). The reaction mixture (500 μl) consisted of 300 μl of healthy donor PRP, HIT patient serum or purified Total HIT IgG (up to 14 μM, adjusted according to different donor platelets), heparin (0.5 IU/ml) and various concentrations of HRU5-HRU7. The degree of aggregation was determined by the increase in light transmittance. Platelet aggregation levels over 20% were considered positive.
With antibody/IC-induced platelet aggregation, time delay (time lapse) is a more sensitive measure of platelet aggregability compared with the extent of platelet aggregation as different antibodies invariably cause the same maximum extent of platelet aggregation after variable time delays or time lapses (as illustrated in FIG. 2B). Various concentrations of parental scFv, HRU5 or HRU6 were used. Plots were fitted to non-linear regression analysis (sigmoidal dose-response curves) (FIG. 2C). […] Here, the degree of inhibition of platelet aggregation was determined at various concentrations and analysed as shown in FIG. 2D.
Inhibition of platelet aggregation of HIT-antibody by HRU5 ˜3.5 mg/ml.

[2] = biological target: T2, human Fc gamma receptor IIA (FcγRIIA); assay: platelet-based fluorescent assay (flow cytometry), one-site specific binding fit
Description: (§1) Platelet-rich plasma (PRP) was obtained from whole blood after centrifugation at 200×g for 10 min. Washing/Suspension buffer (PBS, 0.5% BSA, 25 mM EDTA, pH 6.8) was used for platelet preparation throughout the experiment. 4 μl of PRP was incubated with various concentrations of fluorescently labelled HRU molecules for 30 min. Cells were washed once with 500 μl of buffer (PBS, 0.5% BSA, 25 mM EDTA, pH 6.8), suspended in 200 μl of PBS and analysed by flow cytometry (Cantoll, BD Biosciences).

[3] = biological target: T2, human Fc gamma receptor IIA (FcγRIIA); assay: cell-based or functional assay
human platelets [4] = assay: Platelet binding, flow cytometry (platelet-based fluorescent assay); settings: for Kd: binding to human platelets, non-linear regression, one-site specific binding (FIG. 1D); for binding to human platelets: labelled scFvs, flow cytometry, in words
Description: FIG. 1D provides graphs of platelet-based fluorescent assay measurements with KD and R^2 values for the parental scFv, HRU5 and HRU6. Non-linear regression analysis (one-site specific binding) was used to determine KD and R^2 values. GMF, geometric mean fluorescence.
as §1

[5] = tested on: FcγRIIa+/hPF4+ mouse lungs; assay: Platelet accumulation in FcγRIIa+/hPF4+ mouse lungs (FIG. 8); assay type: in vivo
From the text: FIG. 8 is a graph of radiant efficiency showing the level of platelet accumulation in FcγRIIa+/hPF4+ mouse lungs.

[6] = tested on: FcγRIIA/hPF4 double transgenic mice; assay: Animal model of HIT (KKO plus heparin), lung thrombi by fluorescence; assay type: in vivo, mouse; settings: 3.49×10^−11 moles per gram (~1 microgram/g)
Description: The mice used in these experiments were described in Reilly et al., “Heparin-induced thrombocytopenia/thrombosis in a transgenic mouse model requires human platelet factor 4 and platelet activation through FcγRIIA” Blood. 2001; 98(8):2442-2447. Animals were injected intravenously (iv) with HIT-like MoAb KKO. Heparin was injected intraperitoneally at 1 U/g following IgG injection. In some experiments, HRU molecules were also injected via the iv route. For in vivo platelet labelling anti-CD42c-Dylight649 (Emfret) was injected iv at 1 μg/g. Platelet counts were measured before treatment and at 1 h, 3 h and 5 h following treatment. Lungs were harvested 4 h after treatment, fixed in formalin and scanned for fluorescence in an IVIS Lumina Spectrum CT Spectrometer (PerkinElmer).
Mouse platelets were labeled in vivo with anti CD42c-Dylight649 antibody. The animals were treated with the HIT-like monoclonal antibody KKO plus heparin in the absence (vehicle) or presence of 3.49×10^−11 moles per gram (˜1 microgram/g) of parental scFv or HRU5. Fixed lungs from these mice were scanned with an IVIS Lumina Spectrum CT. There was clear accumulation of florescence in lungs treated with KKO plus vehicle, indicative of the presence of platelet rich thrombi. […] This finding is consistent with the findings of the in vitro experiments and microfluidics studies. […]

platelets [7] = assay: Serotonin release assay (platelet activation); assay type: cell-based, human; settings: 0.1 IU/ml heparin; induced by KKO (FIG. 4) / HIT serum
From the text: FIG. 4 is a graph of the serotonin release assay. Serotonin release was induced by a HIT-like monoclonal antibody (KKO) and was inhibited by parental scFv, HRU5, HRU6 or HRU7. Heparin was used at therapeutic low concentrations (L, 0.1 U) and at inhibitory high concentration (H,100 U). Dotted lines denote 0% and 20% CPMA. Values over 20% are considered positive. CPMA, counts per minute.
SRA is the gold standard to confirm the presence of platelet-activating HIT antibodies. Platelets from a healthy donor were labelled with Hydroxytryptamine Binoxalate, 5-[2-^14C]-(Serotonin) (^14C-5HT) (1.5 μl/ml) and mixed with heparin (0.1 (low dose) or 100 IU/ml (high dose)) in the presence of HIT serum. The protein of interest was then added to the reaction and incubated at room temperature for 1 h. After centrifugation the supernatant was collected and the ^14C-serotonin released was measured in a scintillation counter. The percentage of ^14C-serotonin released was calculated by determining the proportion in the supernatant relative to the remaining ^14C-serotonin in platelets. A test result is defined as positive if more than 20% serotonin release is detected with a therapeutic heparin concentration of (0.1 IU/ml) but not with a high dose of heparin (100 IU/ml).

thrombin = biological target: T3, thrombin (Homo sapiens, UniProt P00734); assay: Thrombin time assay in plasma; assay type: biochemical; settings: undiluted plasma, increasing concentrations, in words
T3 construct: purchased Diagnostica STAGO S.A.A
Description: FIG. 3B is a graph of a Thrombin Time Delay assay for HRU6 and HRU7. Increasing concentrations of HRU molecules were incubated with undiluted plasma prepared from ACD anticoagulated blood. Clotting time of control plasma (untreated plasma) is shown corresponding to 0 concentration (closed circle). […] Clotting time is shown in sec.
The STA-Thrombin kit (Diagnostica STAGO S.A.A.) was used for the determination of the thrombin time by a haemostasis analyser. Plasma was prepared from ACD anticoagulated normal blood by centrifugation for 10 min at 2500×g. 500 μl of undiluted plasma, in the absence and presence of different inhibitor concentrations (e.g., HRU6 and HRU7), was analysed. Thrombin time of the plasma was determined by the analyser.
HRU6 and HRU7 also contain anti-thrombin activity provided by the lepirudin and bivalirudin moieties respectively. The Hemoclot thrombin inhibitor assay was used to determine the anti-clotting activity. The normal clotting time range is 15-24 sec.

platelets [8] = assay: Thrombin-induced platelet aggregation; assay type: cell-based, human; settings: 0.3 U of thrombin
From the text: For thrombin induced platelet aggregation samples were mixed as described above in the presence of 0.3 U of thrombin.

Row | Molecule | Inhibition of platelet aggregation of HIT-antibody (human platelets [1]; serum from a HIT patient) | Kd [2] [µM] | Kd (human platelets [4]) [µM] | inhibition of thrombus accumulation in lungs [6] | 14C-serotonin release (platelets [7]) | inhibition of HIT serum induced aggregation (human platelets [1]) | EC50 (human platelets [1]) [µM] | binding to human platelets (human platelets [4]) | thrombin clotting time (thrombin) | other results
1 | WAWVWLTETAV [FcγRIIA binding peptide, reference compound] | 100 µM | – | – | – | – | – | – | – | – | Kd (FcγRIIA): 0.5 µM; IC50 (human platelets [1]): 55 µM; capacity to inhibit HIT serum-induced aggregation (human platelets [1]; peptide alone, FIG. 10): low; IC50 of peptide versus EC50 of the parental scFv (human platelets [1]; printed as '3,000 times lower'): 3,000 times
2 | B1 | – | 0.298 | – | – | – | – | – | – | – | EC50 (platelet aggregation induced by HIT serum) [3]: 0.018 µM
3 | B2 | – | 0.282 | – | – | – | – | – | – | – | –
4 | B3 | – | – | 0.282 | inhibition of thrombus accumulation | inhibited | completely inhibited | 55 | – | – | inhibition of thrombosis (platelet accumulation in lungs, radiant efficiency) [5]: strong inhibition of thrombosis
5 | B4 | ~3.5 mg/mL | – | 0.298 | inhibition of thrombus accumulation; also recorded: Clot inhibition was much greater in mice treated with HRU5 than with parental scFv | inhibited | completely inhibited | 0.0088 | strong binding to platelets | did not influence clotting time; also recorded: does not prolong clotting time | activity relative to the parental scFv (EC50 and IC50) (human platelets [1]; HIT serum-induced platelet aggregation, in words): increase in activity; Inhibition of platelet aggregation of HIT-antibody (human platelets [1]; converted from mg/ml): ~0.09386 µM
6 | B5 | – | – | – | – | inhibited | – | – | stronger binding to human platelets than expected | significant increases in thrombin clotting time; also recorded: prolong clotting time in a dose-dependent manner | inhibition of thrombin-induced platelet aggregation (platelets [8]): inhibit thrombin-induced platelet aggregation in a dose dependent manner
